In experiment [1] the target is p43, the major excreted/secreted protein of Trichuris muris (native p43) (Trichuris muris). The experiment in a line: MST; serial dilution of IL-13 from 2500 nM to 40 pM with 5 nM NHS-647-labeled p43; 20 mM HEPES, 150 mM NaCl, 0.005% Tween-20, pH 7.4; KD model (1:1 stoichiometry); three reactions.
Experiment [2] shares this target. The experiment in a line: native MS; p43 and IL-13 mixed at a ratio of 1.5:1 in 250 mM ammonium acetate, pH 7, 2 h at room temperature; nano-electrospray, collision-induced dissociation of the mass-selected 18+ ion of the complex.

B1: recombinant murine interleukin-13 (ligand)
chain: APGPVPRSVSLPLTLKELIEELSNITQDQTPLCNGSMVWSVDLAAGGFCVALDSLTNISNCNAIYRTQRILHGLCNRKAPTTVSSLPDTKIEVAHFITKLLSYTKQLFRHGPF
With B1, the Kd in experiment [1] came to 420 nM. The stoichiometry N in experiment [2] amounted to 1.

(Values after PMC6538607.)
